The results in this text go back to patent US20060024786A1, “WASP and N-WASP constructs and methods of expressing such constructs” (Cytokinetics, Inc., priority 2004, published 2006).

Holding throughout (test): cell-based or functional assay
In assay [1] the target is full length human N-WASP (Myc-N-WASP-TAP) (human).
Assay [2] deals with full length human WASP (Myc-WASP-TAP) (human).
A further assay addresses Arp2/3 complex (human) (UniProt P61158).

In assay [1], GST_NCK2 yielded a Barbed ends % of max. (after subtracting baseline) of 78%; a Barbed ends, nM (pyrene-actin polymerization assay) of 3.5 nM; an EC50, nM (activation of actin polymerization) of 7 nM. Also, in assay [2], the Barbed ends % of max. (after subtracting baseline) is 50%; the Barbed ends, nM (pyrene-actin polymerization assay) came out at 2.6 nM; the EC50, nM (activation of actin polymerization) was 12 nM.
With “N_GST_tev_Cdc42 GTP (bacterial GST tagged Cdc42 protein) (enzyme)”, the EC50, nM (activation of actin polymerization) in assay [1] was 287 nM; in assay [2], 16 nM.
For the substance full length human WASP (Myc-WASP-TAP), in the assay with Arp2/3 complex (human), the activity relative to 105 WASP (actin polymerization, EC50 comparison) worked out at 20 times; the concentration giving maximal barbed ends (500 nM Cdc42, 2.5 nM Arp2/3, 3.5 uM actin) amounted to 3 nM; the potency relative to the VCA/WA domain (actin polymerization, EC50 comparison) was over 70 times.
